The source of these data is article PMC4650548.

In the experiment the target is NBS1 (UniProt O60934). Nature of the experiment: biotin-peptide streptavidin pull-down from lysate.

Turning to “PHRF1 908-924 (from UniProt Q9P1Y6) pSDpTE peptide”, the “binding against the reference” value reads like this: (reference: SDpTE peptide, sites S915) “gained”; (reference: pSDTE peptide, sites T917) “gained”.
